Data reported in article PMC4003184 (The Journal of General Physiology, 2014).

Biological target: mouse TRPV4 fused to mCherry (mouse, UniProt Q9EPK8 1-871)
Test: cross-correlation raster image correlation spectroscopy

mouse TRPV4 fused to mCherry, sequence (Q9EPK8 whole entry, the tested form may be a part): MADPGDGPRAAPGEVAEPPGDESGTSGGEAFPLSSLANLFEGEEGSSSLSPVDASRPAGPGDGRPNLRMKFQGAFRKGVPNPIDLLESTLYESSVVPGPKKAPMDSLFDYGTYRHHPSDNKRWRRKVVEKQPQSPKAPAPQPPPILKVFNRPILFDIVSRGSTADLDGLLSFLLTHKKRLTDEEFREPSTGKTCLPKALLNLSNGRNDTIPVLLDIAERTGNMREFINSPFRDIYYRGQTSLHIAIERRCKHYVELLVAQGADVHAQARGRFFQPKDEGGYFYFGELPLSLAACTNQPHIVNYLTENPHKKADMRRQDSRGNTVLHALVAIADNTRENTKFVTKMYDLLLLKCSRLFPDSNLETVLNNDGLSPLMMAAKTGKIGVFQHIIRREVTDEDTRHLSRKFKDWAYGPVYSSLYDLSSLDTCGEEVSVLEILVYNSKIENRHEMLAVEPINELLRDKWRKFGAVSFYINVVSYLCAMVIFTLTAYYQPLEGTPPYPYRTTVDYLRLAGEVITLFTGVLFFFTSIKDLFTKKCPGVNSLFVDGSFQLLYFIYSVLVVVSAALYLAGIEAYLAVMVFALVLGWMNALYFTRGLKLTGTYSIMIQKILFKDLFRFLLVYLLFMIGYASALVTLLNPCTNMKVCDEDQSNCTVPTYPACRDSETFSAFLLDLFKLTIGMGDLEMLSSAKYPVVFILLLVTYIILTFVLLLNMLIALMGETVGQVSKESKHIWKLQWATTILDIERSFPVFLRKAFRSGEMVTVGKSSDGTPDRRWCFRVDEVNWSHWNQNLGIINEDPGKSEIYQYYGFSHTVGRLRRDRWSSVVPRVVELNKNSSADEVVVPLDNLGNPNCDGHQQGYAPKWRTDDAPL

B1: AKAP150 fused to EGFP (natural protein, UniProt P24587 1-714, looked up)
chain: METSVSEIQIETKDEKRPEAASPQKERQERKTATLCFKRRKKVNKKKAKAGSKTAEETEKHAPEAGGSGQRQPAGAWASIKRLVTHRKPSESAEKQKPSEAEMQPEDGALPKKKTKSKLKIPCIRFSRGAKRSRPSKLTEDSGYVRVQGEADDLEIKAQIQPDEQATQAKSTQGLQEDVIVRDGKEIQESHISNNVISGEHVIGIELELEKESSALRMRTPGSEKEAKVILVKQGVQVQEASVLENSAADSPQPVTSTAPLSPATTHQLGLEEPSDSIRESAPSGKDDGRRKTAAEEKKSGETALGQAEEASSVSQADKSVLSQAEEATVGHTEEATVIQAQSQAKEGKLSQAEEATVAQAKETVLSQAEEVKLSQIEEPAISQAKKATVGQAKEAYVSQAEEAIVGHTEKATMGQAEEATVGHIEKTTVGQAEEATVGQAEEATVGQAEEATVGQAEEATVGQAEEATVGQAGEATVSHIEKTTVGQAEEAIVGQAEEATVGQAEEATVGQAEEATVGQAEEATVDQAEEATVGQAEEATVGQAGEAAVGQAEEAIVAQAEEATVGQAGEATVGQAEKATVGQAEEPIVGQAEETVLRHASDLKVNGVDAEKPRSEESKRMEPIAIIITDTEISEFDVKKSKNVPKQFLISMENEQVGVFANDSDFEGRTSEQYETLLIETASSLVKNAIELSVEQLVNEMVSEDNQINTLFQ
cross-correlation ratio (Gcc/[mean of G_(TRPV4) and G_(AKAP)]): 0.4
